Source: patent US11499162B2, “Plants having increased tolerance to herbicides” (BASF SE, priority 2016, dated 2022)
Where a chain is given by its changes, count along the chain named. Numbers in names are those of the source.

B1: E246S: mutated TriA variant of SEQ ID NO: 2 (protein)
chain: MQTLSIQHGTLVTMDQYRRVLGDSWVHVQDGRIVALGVHAESVPPPADRVIDARGKVVLPGFINAHTHVNQILLRGGPSHGRQLYDWLFNVLYPGQKAMRPEDVAVAVRLYCAEAVRSGITTINDNADSAIYPGNIEAAMAVYGEVGVRVVYARMFFDRMDGRIQGYVDALKARSPQVELCSIMEETAVAKDRITALSDQYHGTAGGRISVWPAPAITPAVTVEGMRWAQAFARDRAVMWTLHMASSDHDERLHWMSPAEYMECYGLLDERLQVAHCVYFDRKDVRLLHRHNVKVASQVVSNAYLGSGVAPVPEMVERGMAVGIGTDDGNCNDSVNMIGDMKFMAHIHRAVHRDADVLTPEKILEMATIDGARSLGMDHEIGSIETGKRADLILLDLRHPQTTPHHHLAATIVFQAYGNEVDTVLIDGNVVMENRRLSFLPPERELAFLEEAQSRATAILQRANMVANPAWRSL
modifications: Pseudomonas
B2: E246T: mutated TriA variant of SEQ ID NO: 2 (protein)
chain: B1 chain with S246T
modifications: Pseudomonas
B3: E246Q: mutated TriA variant of SEQ ID NO: 2 (protein)
chain: B1 chain with S246Q
modifications: Pseudomonas
B4: E246D: mutated TriA variant of SEQ ID NO: 2 (protein)
chain: B1 chain with S246D
modifications: Pseudomonas
B5: S247A: mutated TriA variant of SEQ ID NO: 2 (protein)
chain: B1 chain with S246E, S247A
modifications: Pseudomonas
B6: S247N: mutated TriA variant of SEQ ID NO: 2 (protein)
chain: B1 chain with S246E, S247N
modifications: Pseudomonas
B7: S247V: mutated TriA variant of SEQ ID NO: 2 (protein)
chain: B1 chain with S246E, S247V
modifications: Pseudomonas
B8: S247G: mutated TriA variant of SEQ ID NO: 2 (protein)
chain: B1 chain with S246E, S247G
modifications: Pseudomonas
B9: N70G: mutated TriA variant of SEQ ID NO: 2 (protein)
chain: B1 chain with N70G, S246E
modifications: Pseudomonas
B10: S247P: mutated TriA variant of SEQ ID NO: 2 (protein)
chain: B1 chain with S246E, S247P
modifications: Pseudomonas

Format: biochemical
Details: pH 7.2
Method in brief: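 E. coli resting cells expressing His-tagged TriA incubated with azines, melamine or atrazine. Enzyme in 25 mM sodium phosphate pH 7.2 at 30 °C, substrate 1–10 nM. Loss of parent and formation of OH-metabolite followed by UPLC-HR-MS; % degradation relative to empty-vector cells.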

Molecule | Degradation in % of 6-cyclopentyl-N4-(2,3,4,5,6-pentafluorophenyl)-1,3,5-triazine-2,4-diamine | Degradation in % of Melamine
B1 | 1% | 0%
B2 | 3% | 0%
B3 | 0% | 4%
B4 | 5% | 0%
B5 | 0% | 1%
B6 | 2% | 0%
B7 | 2% | 3%
B8 | 2% | 2%
B9 | 0% | 0%
B10 | 0% | 3%
